Laboratory results from patent publication US20220195015A1 (published 2022).

B1: C563 (antibody, V domains shown)
VH: EVQLVESGGGLVKPGGSLRLSCAASGFPFTNAWMSWVRQAPGKGLEWVGHIKDYTDGGTTDYAAPVKGKFTISRDDSKNTLYLHMNSLKTEDTAVYYCSTVGSYYYDSRGPTSDAFDIWGQGTLVTVSS
VL: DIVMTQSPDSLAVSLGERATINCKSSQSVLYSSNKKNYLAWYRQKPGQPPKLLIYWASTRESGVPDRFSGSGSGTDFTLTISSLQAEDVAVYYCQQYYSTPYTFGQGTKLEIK
B2: C564 (antibody, V domains shown)
VH: EVQLLESGGGLVQPGTSLRLSCAASGFTFSSYAMSWVRQAPGKGLEWVSAISSSGGSTYYADSVKGRFTISRDNSKNTLYLHMNSLRAEDTAVYYCATERIAVAGTRMYNWFDPWGQGTLVTVSS
VL: DIQMTQSPSSLSASVGDRVTLTCRASQSISSYLNWYQQKPGKAPNLLIYAASSLQSGVPSRFSGSGSGTDFTLTISSLQPEDFATYYCQQSYSAPPWTFGQGTKVEIK
B3: C213 (antibody, V domains shown)
VH: EVQLVESGGGLVKPGGSLRLSCAASGFTFSSYSMNWVRQAPGKGLEWVSSISSSSSYIYYADSVKGRFTISRDNAKNSLYLQMNSLRAEDTAVYYCARVQVGARGWVDYWGQGTLVTVSS
VL: NFMLTQPHSVSESPGKTVTISCTRSSGSIASNYVQWYQQRPGSAPTTVIYEDNERPSGVPDRFSGSIDSSSNSASLTISGLKTEDEADYYCQSYDRINWVFGGGTKLTVL
B4: C217 (antibody, V domains shown)
VH: EVQLVESGGGLVKPGGSLRLSCAASGFTFSSYSMNWVRQAPGKGLEWVSFISSRSSYIYYADSVKGRFTISRDNAKNSLYLQMNSLRAEDTAVYYCARVQVGARGWVDYWGQGTLVTVSS
VL: NFMLTQPHSVSESPGKTVTISCTRSSGSIASNYVQWYQQRPGSAPTTVIYEDNQRPSGVPDRFSGSIDSSSNSASLTISGLKTEDEADYYCQSYDSINWVFGGGTKLTVL
B5: C073 (antibody, V domains shown)
VH: QLQLQESGPGLVKPSETLSLTCTVSGASIPSSTSYWGWIRQPPGKGLEWIGSIYYTGSTYYNPSLKSRVTISVDTSKNHFSLILSSVTAADTAVYYCARRSITLAGRDCLDFWGQGTLVTVSS
VL: DIQLTQSPSSLSASVGDRLTITCRASQSITTSLNWYQQKPGKAPKLLIYAASSLQSGVPSRFSGSGSGTDFTLAISSLQPEDFATYYCQQSYIPLLTFGGGTKVDIK
B6: C077 (antibody, V domains shown)
VH: QVQLVQSGAEVKKPGASVKVSCKASGYTFTSYAMHWVRQAPGQRLEWMGWINTDNGNTKYSQKFQGRVTITRDTSASTAYMELSSLRSEDTAVYYCAREGALTNWFDPWGQGTLVTVSS
VL: SYELTQPPSVSVAPGQTARIPCGGNNIGSKSVHWYQQKPGQAPVLVVYDDSDRPSGIPERFSGSNSGNTATLTISRVEAGDEADYYCQVWDSSSDLHVVFGGGTKLTVL
B7: C080 (antibody, V domains shown)
VH: EVQLVQSGAEVKKPGESLNISCKASGYSFTIYWIAWVRQLPGKGLEWMGIIYPGDSDTRYSPSFQGQVTISADKSISTAYLQWRSLKASDSAVYYCARGVAVDWYFDLWGRGTLVTVSS
VL: QSVLTQPPSVSGAPGQRVTISCAGSSSNIGAGFDVYWYQQLPGTAPKLLIYGNNNRPSGVPDRFSGSKSGTSASLAITGLQAEDEADYYCQSSGSVLSDLYVFGTGTKVTVL
B8: C091 (antibody, V domains shown)
VH: QVQLVQSGAEVKKPGSSVKVSCKASGGTFSSYTISWVRQAPGQGLEWMGRIIPILGIANYAQKFQGRVTITADKSTSTAYMELSSLRSEDTAVYYCARDSGYSGYGSTYYMDVWGKGTTVTVSS
VL: QSVLTQPPSVSGAPGQRVTISCTGSSSNIGAGYDVHWYQQLPGTAPKLLIYGNSNRPSGVPDRFSGSKSGTSASLAITGLQAEDEADYYCQSYDSSLSGSVFGTVTKVTVL
B9: C092 (antibody, V domains shown)
VH: QVQLVQSGAEVKKPGSSVKVSCKASGGSFTNHFISWVRQAPGQGLEWMGRIIPILGTANYAQNFQGRVMMTADKSTSTAYMELSSLRSEDTAVYYCARDSGYSGYGSTYYMDVWGKGTTVTVSS
VL: QSVLTQPPSVSGAPGQRVTISCTGSNSNIGAGYDVHWYQQLPGAAPKLLIYGNNNRPSGVPDRFSGSKSDTSASLAITGLQVEDEADYYCQSYDSSLSDSVFGSGTKVTVL
B10: C094 (antibody, V domains shown)
VH: QVQLQESGPGLVKPSETLSLTCNVSGVSISTDYWSWIRQPPGKGLEWIGYIYYSGNTKDYNPSLKSRVTISVDTSKNQFSLMLSSVTAADTAVYYCARHYDILTSLSWFDPWGQGTLVTVSS
VL: QSVLTQPPSVSAAPGQKVTISCSITNSNLGNIYVSWYQQLPGTAPKLLIYGNNKRPSGIPDRFSGSKSGTSATLGITGLQTGDEAHYYCGTWDSSLSANWVFGGGTKLTVL
B11: C035 (antibody, V domains shown)
VH: EVQLVESGGGLVQPGGSLRLSCAASGFIFSSYWMTWVRQAPGKGLEWVASIKYNGNERNYVDSVKGRFTISRDNARNSLFLQLNNLGAEDTAVYYCARQPESTIWYYFDYWGQGTLVTVSS
VL: SYELTQPPSVSVSPGQTARVTCSGHALPDQYTYWYQQRPGRAPVLVIYVNNQRPSGIPDRFSATTSGTTVTLTISGVQAEDEADYYCQSADSSGSYVVFGGGTKLTVL
B12: C521 (antibody, V domains shown)
VH: EVQLVESGGGLVRPGGSLTLSCVASGFTVGSNFMSWVRQAPGKGLEWVSLIYNSGGTHYADSVKGRFTISRDRSKNTLYLQMNSLRAEDTAIYYCANHGYYYYMDVWGKGTTVTVS
VL: QSALTQPASVSGSPGQSITISCTGTGSDIGAYNYVSWHQHHPGKAPKLIIYDVSNRPSGVSNRFSGSKSGNTASLTISGLQAEDEADYYCTSYTNTTTPWVFGGGTKVTVL
B13: C522 (antibody, V domains shown)
VH: EVQLVESGGGLIQPGGSLRLSCAASEFIVSRNYMSWVRQAPGKGLEWVSVIYSGGSTFYADSVKGRFTISRDESKNTLYLQMNSLRAEDTAIYYCARDRGGGILDYWGQGTLVTVS
VL: DIQMTQSPSSLSASVGDRVTITCQASQDINIFLNWYQQKPGKAPKLLIYDASSLETGVPSRFSGSGSGTDFTFTISSLQPEDFATYYCQQYGNLPKYTFGQGTKLEIK
B14: C095 (antibody, V domains shown)
VH: VQLVEAGGGVVQPGRSLRLSCAASGLAFSIYGMHWVRQAPGKGLEWVAIVAQDGSKKYYADSVKGRFTISRDNSKNTLYLEMNSLRTEDTAVYYCVKEGRPSDTVVVVAFDYWGQGSLVTVSS
VL: DIQLTQSPSSLSASVGDRVTITCRASQSISNYLNWYQQKPGKAPKVIIYAASSLQSGVPSRFSGSGSGTDFTLTISSLQPEDFATYYCQQSHSIPRTFGQGTKVEIK
B15: C547 (antibody, V domains shown)
VH: QVQLVESGGGVVQPGRSLRLSCAASGFTFSSYGMHWVRQAPGKGLEWVAVISYDGSNKYYADSVKGRFTISRDNSKNTLYLQMNSLRAEDTAVYYCAKDTPGGDDILTGWGLYGMDVWGQGTTVTVSS
VL: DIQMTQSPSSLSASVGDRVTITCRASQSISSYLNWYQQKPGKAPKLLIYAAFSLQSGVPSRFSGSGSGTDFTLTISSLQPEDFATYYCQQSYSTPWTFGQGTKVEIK
B16: C543 (antibody, V domains shown)
VH: QVQLVESGGGVVQPGRSLRLSCTASGFTFSTAGMHWVRQAPGKGLEWVAVISYDGSNKDYADSVKGRFTISRDNSKSTLYLQMNSLRPEDTAVYYCAKDTPGGDDIMTGWGLYGMDVWGQGTTVTVSS
VL: DIQMTQSPSSLSASVGDRVTITCRASQSISSYLNWYHQKPGKAPKLLIYAAISLQSGVPSRFSGSGFGTDFTLTISSLQPEDFAIYYCQQSYSTPWTFGQGTKVEIK

Key:
[1] = target: SARS-CoV-2 RBD (wild type) (SARS-CoV-2, UniProt P0DTC2 319-539); assay: ELISA on coated RBD
[2] = target: SARS-CoV-2 spike receptor binding domain (RBD), S protein residues 319-539 (SARS-CoV-2, UniProt P0DTC2 319-539); assay: ELISA on coated RBD

Binder	EC50 [1] [ng/mL]	EC50 [2] [ng/mL]
B1	1.19	
B2	14.6	
B3	2.02	
B4	2.28	
B5	20.6	
B6	45.9	
B7	1.97	
B8	89.5	
B9	7.07	
B10	1.67	
B11	15.2	
B12	6.9	
B13	0.93	
B14	1.1	
B15		1.78
B16		1.28
